Measured values taken from paper PMC5811392 (Biochemistry, 2018).

What was measured:
[1] = target: T1, Human p53 DNA-binding domain (residues 88-312) (human, UniProt P04637 88-312); assay: ITC
[2] = target: T1, Human p53 DNA-binding domain (residues …); assay: NMR titration
[3] = target: T1, Human p53 DNA-binding domain (residues …); assay: fluorescence polarisation

T1 sequence (P04637 88-312): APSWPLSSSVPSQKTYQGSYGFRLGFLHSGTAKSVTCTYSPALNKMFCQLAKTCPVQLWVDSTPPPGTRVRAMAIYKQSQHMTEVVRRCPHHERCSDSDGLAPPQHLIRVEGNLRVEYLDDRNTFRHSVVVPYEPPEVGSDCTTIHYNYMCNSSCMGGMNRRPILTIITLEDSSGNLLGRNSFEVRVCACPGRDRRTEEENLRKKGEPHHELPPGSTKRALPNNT

Binder	Kd [1] [µM]	dH [1] [kcal/mol]	Kd [2] [µM]	Kd [3] [µM]
full length p23 (residues 1-160) (natural protein, human, UniProt Q15185 1-160, looked up) MQPASAKWYDRRDYVFIEFCVEDSKDVNVNFEKSKLTFSCLGGSDNFKHLNEIDLFHCIDPNDSKHKRTDRSILCCLRKGESGQSWPRLTKERAKLNWLSVDFNNWKDWEDDSDEDMSNFDRFSEMMNNMGGDEDVDLPEVDGADDDSQDSDDEKMPDLE	7 ± 2	-1.9 ± 100	8 ± 2	21 ± 7
GB1-p23 (110-160) (domain or fragment, human, UniProt Q15185 110-160, looked up) EDDSDEDMSNFDRFSEMMNNMGGDEDVDLPEVDGADDDSQDSDDEKMPDLE			6 ± 4	
FDRFSEMMNNMGGDEDVDLPEVDGADDDSQDSDDEKMPDLE (domain or fragment, human, UniProt Q15185 120-160, looked up) [GB1-p23 (120-160)]	24 ± 15			
